Our source for the binding signal values is US20200231538, “NOVEL COMPOUNDS AND THERAPEUTICS USES THEREOF” (Centauri Therapeutics Limited (GB/GB), published 2020).

The target of data set [1] is T1, EGFR (Homo sapiens, UniProt P00533 P00533:25-1210). The data set is described as follows: flow; 10 nM (9.8 at 1 uM); anti-alpha-Gal IgG recruitment to A431 cells; PBS, 5 mM MgCl2, RT. The settings on record: tags: A431 cells (ATCC CRL-1555), endogenous overexpression. Here is the method:
(§1) A431 cells (ATCC CRL-1555) were harvested and resuspended at 5×10⁶ cells/mL in phosphate buffered saline (PBS) (Sigma D8662)+0.1% BSA (Bovine Serum Albumin—Sigma A2153)+0.1 mg/mL Yeast t-RNA (Invitrogen 15401-011)+5 mM MgCl₂ (Sigma M1028) and incubated on ice for 30 minutes to block. 5×10⁵ cells were then incubated with compound at various concentrations as described below or buffer alone at room temperature, shaking at 450 rpm for 1 hour. The cells were washed with 3×200 μL PBS+0.1% BSA, prior to adding 50 μL of Anti-alpha galactosyl IgG antibody (custom purification from human IVIG, Rockland Immunochemicals, Inc.) at 35 μg/mL in PBS+0.1% BSA and incubating at 4° C. for 1 hour. The cells were further washed with 3×200 μL PBS+0.1% BSA before being treated with 100 μL 1:40 dilution of Anti-Human IgG-PE (phycoerythrin) (Biolegend 409303) at 4° C. for 1 hour. After a final wash of 3×200 μL PBS+0.1% BSA the cells were resuspended in 200 μL PBS+0.1% BSA and evaluated on a flow cytometer (FC500 Beckman Coulter). Data from all samples were analysed in the Kaluza software package (Beckman Coulter).
(§2) The fold shift over background was calculated by dividing the Mean Fluorescence Intensity (MFI) obtained in the presence of 10 nM or 1 μM alphamer by the Mean Fluorescence Intensity (MFI) obtained in the absence of alphamer. […]

For data set [2], the target named is T1, EGFR. The data set can be described thus: flow; 10 nM (7.5 at 1 uM); anti-alpha-Gal IgG recruitment to A431 cells; PBS, 5 mM MgCl2, RT. The settings on record: tags: A431 cells (ATCC CRL-1555), endogenous overexpression. Here is the method:
as §1, §2

Data set [3] concerns the target T1, EGFR. The data set is described as follows: flow; 10 nM (16.3 at 1 uM); anti-alpha-Gal IgG recruitment to A431 cells; PBS, 5 mM MgCl2, RT. The conditions noted are these: tags: A431 cells (ATCC CRL-1555), endogenous overexpression. Here is the method:
as §1, §2

Data set [4] has as its target T1, EGFR. The data set is described as follows: flow; 10 nM (18.4 at 1 uM); anti-alpha-Gal IgG recruitment to A431 cells; PBS, 5 mM MgCl2, RT. The settings on record: tags: A431 cells (ATCC CRL-1555), endogenous overexpression. Here is the method: as §1, §2
Data set [5] addresses T2, PSMA (Homo sapiens, UniProt Q04609 Q04609:1-750). The data set is described as follows: flow; 10 nM (11.1 at 1 uM); anti-alpha-Gal IgG recruitment to LNCaP cells; PBS, 5 mM MgCl2, RT. The conditions noted are these: tags: LNCaP cells (ATCC CRL-1740), endogenous overexpression. Here is the method: as §1, with “LNCaP” for “A431”, “CRL-1740)” for “CRL-1555)”, “The cells were washed with 3×200 μL PBS+0.1% BSA, prior to adding 50 μL of Anti-alpha galactosyl IgG antibody (custom purification from human IVIG, Rockland Immunochemicals, Inc.) at 35 μg/mL in PBS+0.1% BSA and incubating at 4° C. for 1 hour.” left out
(§3) The fold shift over background was calculated by dividing the Mean Fluorescence Intensity (MFI) obtained in the presence of 10 nM or 1 μM alphamer by the Mean Fluorescence Intensity (MFI) obtained in the absence of alphamer. The fold shift over background is reported as a geometric mean with standard error in brackets. The number of independent experiments is also reported. […]

The target of data set [6] is T2, PSMA. The data set is described as follows: flow; 10 nM (8.5 at 1 uM); anti-alpha-Gal IgG recruitment to LNCaP cells; PBS, 5 mM MgCl2, RT. The conditions noted are these: tags: LNCaP cells (ATCC CRL-1740), endogenous overexpression. As to the method:
as §1, with “LNCaP” for “A431”, “CRL-1740)” for “CRL-1555)”, “The cells were washed with 3×200 μL PBS+0.1% BSA, prior to adding 50 μL of Anti-alpha galactosyl IgG antibody (custom purification from human IVIG, Rockland Immunochemicals, Inc.) at 35 μg/mL in PBS+0.1% BSA and incubating at 4° C. for 1 hour.” left out
as §3

Data set [7] deals with T2, PSMA. The data set can be described thus: flow; 10 nM (8.6 at 1 uM); anti-alpha-Gal IgG recruitment to LNCaP cells; PBS, 5 mM MgCl2, RT. The conditions noted are these: tags: LNCaP cells (ATCC CRL-1740), endogenous overexpression. Here is the method:
as §1, with “LNCaP” for “A431”, “CRL-1740)” for “CRL-1555)”, “The cells were washed with 3×200 μL PBS+0.1% BSA, prior to adding 50 μL of Anti-alpha galactosyl IgG antibody (custom purification from human IVIG, Rockland Immunochemicals, Inc.) at 35 μg/mL in PBS+0.1% BSA and incubating at 4° C. for 1 hour.” left out
as §3

T2 sequence (Q04609 whole entry, one chain of several): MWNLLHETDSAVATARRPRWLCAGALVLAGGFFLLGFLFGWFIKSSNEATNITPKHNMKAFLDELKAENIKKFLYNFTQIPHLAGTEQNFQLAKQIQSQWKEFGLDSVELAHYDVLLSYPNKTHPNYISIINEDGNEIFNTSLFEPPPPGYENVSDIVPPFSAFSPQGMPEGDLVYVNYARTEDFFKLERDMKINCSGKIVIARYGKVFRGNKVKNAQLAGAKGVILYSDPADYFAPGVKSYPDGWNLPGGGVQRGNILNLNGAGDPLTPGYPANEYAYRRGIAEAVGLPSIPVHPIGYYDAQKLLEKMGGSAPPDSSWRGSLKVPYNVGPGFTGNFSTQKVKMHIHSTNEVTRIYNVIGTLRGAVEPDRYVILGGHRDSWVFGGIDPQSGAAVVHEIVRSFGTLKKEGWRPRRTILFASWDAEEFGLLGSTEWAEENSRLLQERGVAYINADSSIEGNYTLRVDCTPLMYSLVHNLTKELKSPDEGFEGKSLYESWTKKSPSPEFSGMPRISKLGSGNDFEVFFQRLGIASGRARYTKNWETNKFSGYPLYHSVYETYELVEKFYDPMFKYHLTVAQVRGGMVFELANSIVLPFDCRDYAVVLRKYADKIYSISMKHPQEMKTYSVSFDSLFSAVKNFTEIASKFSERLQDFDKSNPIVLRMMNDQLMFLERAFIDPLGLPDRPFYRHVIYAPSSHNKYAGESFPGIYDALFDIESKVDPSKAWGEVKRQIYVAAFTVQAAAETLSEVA

B1: Example 1 (EGFR aptamer 1-alpha-Gal double cluster 1) (ssRNA)
RNA: GGGAUUUAAUCGCCGUAGAAAAGCAUGUCAAAGCCGGAACCC
modifications: 2'-F pyrimidines, 2'-OMe at most purines (mG, most mA), remaining A 2'-OH; 5' H2N-(CH2)6 linked to alpha-Gal cluster; 3' idT
As to B1, the binding signal with EGFR [1] is 7.7 fold MFI over background.

B2: Example 4 (EGFR aptamer 1-alpha-Gal double cluster 4) (ssRNA)
RNA: B1 RNA
modifications: 2'-F pyrimidines, 2'-OMe at most purines (mG, most mA), remaining A 2'-OH; 5' H2N-(CH2)6 linked to alpha-Gal cluster; 3' idT
As for B2, the binding signal with EGFR [2] stood at 3.4 fold MFI over background.

B3: Example 3 (EGFR aptamer 1-alpha-Gal double cluster 3) (ssRNA)
RNA: B1 RNA
modifications: 2'-F pyrimidines, 2'-OMe at most purines (mG, most mA), remaining A 2'-OH; 5' H2N-(CH2)6 linked to alpha-Gal cluster; 3' idT
In the case of B3, the binding signal in the data set with EGFR [3] came out at 9.7 fold MFI over background.

B4: Example 2 (EGFR aptamer 1-alpha-Gal double cluster 2) (ssRNA)
RNA: B1 RNA
modifications: 2'-F pyrimidines, 2'-OMe at most purines (mG, most mA), remaining A 2'-OH; 5' H2N-(CH2)6 linked to alpha-Gal cluster; 3' idT
Molecule B4 returned a binding signal in the data set with EGFR [4] of 10.7 fold MFI over background.

B5: Example 5 (PSMA aptamer A9g-alpha-Gal double cluster 1) (ssRNA)
RNA: GGGACCGAAAAAGACCUGACUUCUAUACUAAGUCUACGUUCCC
modifications: 2'-F pyrimidines, 2'-OH purines; 5' H2N-(CH2)6 linked to alpha-Gal cluster; 3' idT
For the molecule B5, the binding signal with PSMA [5] was determined as 7.8 fold MFI over background.

B6: Example 6 (PSMA aptamer A9g-alpha-Gal double cluster 5) (ssRNA)
RNA: B5 RNA
modifications: 2'-F pyrimidines, 2'-OH purines; 5' H2N-(CH2)6 linked to alpha-Gal cluster; 3' idT
In turn, B6 showed a binding signal with PSMA [6] of 5.33 fold MFI over background.

B7: Example 7 (PSMA aptamer A9g-alpha-Gal double cluster 2) (ssRNA)
RNA: B5 RNA
modifications: 2'-F pyrimidines, 2'-OH purines; 5' H2N-(CH2)6 linked to alpha-Gal cluster; 3' idT
In the case of B7, the binding signal with PSMA [7] was 3.82 fold MFI over background.
